Source: patent US20200270310A1, “MAFG AS A POTENTIAL THERAPEUTIC TARGET TO RESTORE CHEMOSENSITIVITY IN PLATINUM-RESISTANT CANCER CELLS” (FUNDACÓIN PARA LA INVESTIGACIÓN BIOMÉDICA DEL HOSPITAL …, priority 2017, published 2020)

B1: apMAFG11F (ssDNA)
DNA: GCGGATGAAGACTGGTGTCGCGAACCGGGTTACTTTTGTCGCGGGTCGTCGGATCTGTGCCCTAAATACGAGCAAC
B2: GCGGATGAAGACTGGTGTCGCGAACCGGGTTACTTTTGTCGCGGGTCGTCGGATCTGTGCCCTAAATACGAGCAAC (nucleic acid)
chain: B1 DNA
modifications: chemistry not given here
notes: DNA aptamer selected against the MAFG protein by SELEX
B3: apMAFG3F (ssDNA)
DNA: GCGGATGAAGACTGGTGTGCTGTGCTTTGACGACTGTCTAGTGGGTTTTCTTCCCCCGGCCCTAAATACGAGCAAC
B4: GCGGATGAAGACTGGTGTGCTGTGCTTTGACGACTGTCTAGTGGGTTTTCTTCCCCCGGCCCTAAATACGAGCAAC (nucleic acid)
chain: B3 DNA
modifications: chemistry not given here
notes: as for B2
B5: apMAFG6F (ssDNA)
DNA: GCGGATGAAGACTGGTGTCGATGCATGTGTAGTGCATTTCGAGCCGTTCTATTGGTGTGCCCTAAATACGAGCAAC

What was measured:
BSA = BSA (UniProt P02769 P02769:25-607); assay: ELONA; background control; MAFG signal up to four times that of BSA; details: label: 5' digoxigenin
[1] = tested on: human MAFG peptides M1-M10; assay: ELONA of aptamers with 10 MAFG peptides; assay type: binding; details: digoxigenin aptamer 20 nM, 1 μg peptide, absorbance at 405 nm
Method: (§1) FIG. 9. Characterization of the interaction of aptamers with MAFG. ELONAS in which the Aptamers bound to digoxigenin (20 nM) were incubated 1 hour at 37° C. with 10 peptides (1 μg) previously attached to the plate overnight. After incubating 1 hour with antidigoxigenin-Peroxidase 1/1000, ABTS was added and at 10 minutes the absorbance at 405 nm was measured.
In order to identify compounds of the invention and starting from the amino acidic sequence of human MAFG (NCBI Reference Sequence: NP_116100.2) of: SEQ ID NO 2: […]); we designed the following 10 peptides (please refer to table below):
Peptide M4, amino acids 49-68 corresponds to the basic MAFG region containing the tyrosine residue (Tyr64), as well as the arginine residue (Arg57) required for binding to the DNA, in addition to a nuclear localization signal.

MAFG-Myc = molecular target: T1, MAFG-Myc (Homo sapiens, UniProt O15525); assay: Enzyme-linked oligonucleotide assay (ELONA) of aptamers and aptamer populations; assay type: binding; details: for affinity against MAFG: Example 1, individual aptamers; for binding capacity to the target: Example 3, individual sequences from SEL6MAFG; for binding signal relative to BSA protein: individual sequences from SEL6MAFG
T1 construct: Myc (C); DDK (FLAG)
Method: FIG. 4. Analysis of the affinity of the aptamers against MAFG. (A) Quantification of aptamer-MAFG complexes by qPCR comparing absence (dot pattern) or presence (filled pattern) of MAFG protein. […] Bars represent the mean±SEM of 2-3 experiments (B) Specificity binding assay of aptamers to MAFG performed by ELONA. MAFG-myc was plated at 50ng/well in 96-well plates followed by incubation with 5′ digoxigenin-labeled aptamers from RND40, SEL3MAFG and SEL6MAFG. The figure represents the mean±SEM of 3 independent experiments. p<0.01. (C) Aptacytochemistry in HEK-293T cells transiently transfected with MAFG-myc. Cells overexpressing MAFG were incubated with 5′ Alexafluor 488-conjugated aptamers from RND40, SEL3MAFG or SEL6MAFG (upper panel) or Myc antibody (lower panel). Confocal microscopy images corresponding to the staining of nuclei with Hoechst (blue), antibodies (red), and aptamers (green) are shown. Arrowhead indicates positive cells. Bar=13 μm. (D) Study of individual aptamers affinity performed by ELONA. Recombinant MAFG was plated at 50 ng/well in 96-well plates followed by incubation with 5′ digoxigenin-labeled individual aptamers apMAGF3F, apMAFG6F and apMAFG11F. The figure represents the mean±SD of 2 independent experiments. (E) Secondary structures of aptamers apMAGF3F, apMAFG6F and apMAFG11F obtained by bioinformatics sequence analysis using the mFold software taking into account the lower free energy (AG).
(ii) Enzyme-linked oligonucleotide assay (ELONA): Aptamers were labeled by PCR using 5′ digoxigenin-labeled F3/5′ digoxigenin-labeled R3 primers (IBA Life Sciences). To assess the enrichment of the selected population and the affinity of the individual aptamers for the target, MAFG-Myc (50 ng) was incubated with the rounds 3, 6 of aptamers or the RND40 library. OD405nm values were determined using a SpectraFluor microplate reader (TECAN, Barcelona, Spain).

H23R cells = assay: Viability to CDDP after aptamer transfection (resistance index); assay type: cell-based, human; details: aptamer 25 nM, CDDP 72 h
Method: FIG. 6. Viability curves combining the best dose of aptamers (25nM) and increasing doses of CDDP. Each experimental group was exposed for 72 h to 6 different CDDP concentrations after aptamers transfection; data were normalized to each untreated control, set to 100% and represent the mean±SD of at least 3 independent experiments performed in quadruplicate at each drug concentration for each cell line analyzed 25nM of aptamers and increasing doses of CDDP in H23S/R cells.
Once identified the best dose of aptamers, cells were transfected with aptamers and treated with increased doses of CDDP to assay viability and ROS production as mentioned above. In parallel, for all the experiments, cells were seeded in 24-well plates for aptamers extraction and confirmation of aptamers transfection.
HEK293 and H23S/R cells were seeded into 96-well plates then transfected with 5, 12.5, 25, 75 and 100 nM of MAFG aptamers or treated with PBS-Mg using Jet Pei PolyPlus transfection reagent (PolyPlus Transfection, USA). The dose of 25 nM aptamer was afterwards used in combination with increased doses of CDDP to assay viability and ROS production as described above. To confirm the aptamer-transfection efficiency cells were seeded in 24-well plates for aptamer isolation and confirmation of aptamer transfection by quantitative analysis. A Myc-DDK-tagged ORF clone of MAFG the negative control pCMV6 were used for in transient transfection (OriGene, USA) in combination with MAFG-aptamers following the same procedure.

[2] = molecular target: T2, MAFG in H23S and H23R cells (Homo sapiens, UniProt O15525); assay: Aptacytochemistry with digoxigenin-labeled individual aptamers; assay type: cell-based
T2 construct: endogenous in cells; host or cells: H23S and H23R (NSCLC cells, fixed)
Method: Following the methodology described above, H23R cells were incubated with 6 pmol of digoxigenin-labeled aptamers (IBA Life Sciences) in selection buffer for 1 hour at room temperature. Subsequently, cells were washed three times with PBS and incubated with anti-digoxigenin conjugated with 5′ AlexaFluor 488 (R&D systems, USA) at 1/500 dilution in blocking buffer for 1 hour at room temperature, as secondary antibody. Finally, the cells were mounted on glass slides using glycerol-buffer containing p-phenylenediamine and 1/750 dilution of Dapi for nuclear staining. Controls were made by omitting the aptamer. Colocalization was assessed by confocal microcopy as described in (iii).

[3] = molecular target: T3, MAFG in tumor samples of patients with lung cancer (Homo sapiens, UniProt O15525); assay: Aptahistochemistry in NSCLC tumor samples; details: 20 tumor samples classified by MAFG mRNA levels
T3 construct: from tissue; host or cells: Formalin-fixed paraffin-embedded NSCLC tumour sections
Method: The formalin-fixed and paraffin-embedded tissue sections of patients with lung cancer were baked 15 minutes at 60° C. Deparaffinization was performed by two washes of xylene for 10 minutes each. Tissue sections were rehydrated by a sequential wash in 100%, 90%, 80%, 70% ethanol and distilled water for 5 minutes each. Antigen retrieval was achieved by heat treatment in a pressure cooker for 2 minutes in 10 mM citrate buffer (pH 6.5). Endogenous peroxidase activity of tissues was blocked with 0.3% […]. The primary binding reaction was performed with 10 pmol/ml of digoxigenin-conjugated aptamers overnight at room temperature. The secondary binding reaction was performed with anti-digoxigenin conjugated with POD (Roche; 1/200 dilution in TBS) for 45 minutes. Staining was done using the Immunoperoxidase DAB kit (Master Diagnostica), according to the manufacturer's instructions. The sections were counterstained with hematoxylin.
We then took advantage of the aptacytochemistry to perform an aptamer-based histochemistry in 20 tumor samples from our cohort of patients with known mRNA levels of MAFG. […] To determine the correlation between the aptahistochemistry and the mRNA levels of MAFG, we calculated the percentage of cells with positive staining from the total number of cells computed at four different areas randomly selected for each sample.

[4] = molecular target: T4, MAFG peptide M4 (IVQLKQRRRTLKNRGYAASCR) (Homo sapiens, UniProt O15525 SEQ:49-69); assay: ELONA; 20 nM aptamer, 1 ug peptide plated, 37 C 1 h; values only in figure; epitope M4 (residues 57-75 of MAFG); details: protein: synthetic; tags: synthetic peptide; label: 5' digoxigenin
T4 chain: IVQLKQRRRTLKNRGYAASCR
Method: as §1

| Molecule | binding result (BSA) | interaction of aptamers with the 10 MAFG peptides by ELONA [1] | affinity against MAFG (MAFG-Myc) | binding capacity to the target (MAFG-Myc) | binding signal relative to BSA protein (MAFG-Myc) | CDDP resistance index after aptamer transfection (H23R cells) | number of dots per nucleus, H23R versus H23S [2] | cellular localization of the aptamer [2] | percentage of positive cells in samples with higher MAFG levels [3] | binding result [4] |
| --- | --- | --- | --- | --- | --- | --- | --- | --- | --- | --- |
| B1 | no binding |  |  |  |  |  |  |  |  |  |
| B2 |  | recognized peptide M4 | high affinity | high binding capacity to the target in the nanomolar range | four times that of the BSA protein | no changes | no differences |  |  |  |
| B3 | no binding |  |  |  |  |  |  |  |  |  |
| B4 |  | recognized peptide M4 | high affinity | high binding capacity to the target in the nanomolar range | four times that of the BSA protein | no changes | remarkable differences | also present in the cytoplasm | significant increment in the percentage of positive cells |  |
| B5 | no binding |  |  |  |  |  |  |  |  | binds |
